Source: the RNAGym collection of RNA variant scans (doi:10.7554/elife.80360)

B1: Twister Ribozyme (parent)
chain: AACACUGCCAAUGCCGGUCCCAAGCCCGGAUAAAAGUGGAGGGGGCGG

Variants of: B1
Experiment: self-cleavage, relative activity (ratio to wild type); higher = more cleavage; co-transcriptional

Variant	self-cleavage
G17A A40G	0.171
G17A A40C	0.105
G17A G38U	0.468
G17A G38C	0.54
G16U G41A	0.278
G17C A32U	0.109
G17A A33G	0.451
G16C A33G	0.403
C15U G16A	0.457
C15U G16U	0.31
C15U G16C	0.464
G17U G38A	0.206
G17U G38C	0.203
G17A U31C	0.746
G17A U31A	0.715
C15U C46G	0.887
C15U C46A	0.944
G16A G45A	0.891
G16A G41C	0.167
G16A G41U	0.396
C15U G28A	1.14

Variant	self-cleavage
C15U G28U	0.973
G17C G42U	0.0737
C15U C19G	0.251
C15U C19U	0.902
G17C G29A	0.0678
G17C G29U	0.0973
G16U G39U	0.225
G16U G39A	0.595
G17A A34U	0.137
G17A A34G	0.211
G17C G24A	0.0848
G17C G24U	0.0734
G17C G24C	0.0583
C15U G38C	0.801
U18A A34C	0.113
G17C C25A	0.0882
G17C C25U	0.0911
U18A	0.667
G17U A34G	0.182
G17U A34C	0.0829
G17U G29U	0.158

Variant	self-cleavage
G17U G29A	0.118
G17U G29C	0.0894
C15U A30U	0.925
C15U A30C	0.802
C15U A30G	0.759
G16C C20A	0.0672
G16C C20G	0.104
C15U U31C	0.923
C15U U31G	0.782
G17U G48C	0.467
G17U G48U	0.316
G17U G48A	0.316
G17U C46G	0.301
U18A A30C	0.104
G16U	1.07
G16C	0.663
G16A	1.03
G16U U18G	0.0727
G16U U18A	0.605
G16U G42U	0.166
G16U G42A	0.26

Variant	self-cleavage
G17C A40U	0.0929
G17C A40C	0.117
C15U G29A	0.927
C15U G29C	0.194
C15U G29U	0.652
G16A A34U	0.417
G17C A33U	0.0842
G17C A33G	0.093
C15U G44C	0.812
C15U G44U	0.988
G16C C19A	0.165
G16C C19U	0.461
C15U G39A	0.314
C15U G39C	0.146
G16A G43C	0.181
G16A G43U	0.321
G16U G36A	0.426
G16U G36U	0.124
G16A C27G	0.745
G16C G28A	0.194
